In publication PMC11096365, “Cryo-EM structures of the human Elongator complex at work” (Nature Communications, 2024):

Tests used:
human ELP123 = target: T1, human ELP123 (Homo sapiens, UniProt Q9H9T3); test: cryo-EM structure ([…] Å); type: binding; conditions: with tRNA-GlnUUG and SAM; KAT domain of ELP3; pH 7.5; hydrolysis induced by tRNA
T1 construct: gene ELP3; recombinant ELP123 subcomplex (1:1:1, two lobes), codon-optimized ORFs, C-terminal Twin-Strep-Tag on ELP3, insect cells (SuperSf9-3); ELP1 148 kDa, ELP2 93 kDa, ELP3-TST 65 kDa; with Elongator complex protein 1; Elongator complex protein 2
T1 sequence (Q9H9T3 1-547): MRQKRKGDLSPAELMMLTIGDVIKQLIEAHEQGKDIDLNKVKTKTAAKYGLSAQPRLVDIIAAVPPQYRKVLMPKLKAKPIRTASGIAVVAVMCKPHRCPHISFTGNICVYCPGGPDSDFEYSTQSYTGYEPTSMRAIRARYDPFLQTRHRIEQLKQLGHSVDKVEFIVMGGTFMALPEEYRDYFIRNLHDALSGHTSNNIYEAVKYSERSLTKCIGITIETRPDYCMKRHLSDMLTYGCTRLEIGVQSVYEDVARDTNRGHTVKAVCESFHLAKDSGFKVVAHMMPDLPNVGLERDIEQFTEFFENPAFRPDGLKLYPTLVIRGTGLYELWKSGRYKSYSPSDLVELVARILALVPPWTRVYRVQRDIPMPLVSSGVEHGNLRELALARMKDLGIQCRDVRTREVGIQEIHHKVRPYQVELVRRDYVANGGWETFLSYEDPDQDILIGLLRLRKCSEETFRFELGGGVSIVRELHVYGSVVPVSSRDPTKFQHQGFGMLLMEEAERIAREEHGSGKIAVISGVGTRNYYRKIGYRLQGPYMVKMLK
T1 sequence (O95163 1-1332 partner): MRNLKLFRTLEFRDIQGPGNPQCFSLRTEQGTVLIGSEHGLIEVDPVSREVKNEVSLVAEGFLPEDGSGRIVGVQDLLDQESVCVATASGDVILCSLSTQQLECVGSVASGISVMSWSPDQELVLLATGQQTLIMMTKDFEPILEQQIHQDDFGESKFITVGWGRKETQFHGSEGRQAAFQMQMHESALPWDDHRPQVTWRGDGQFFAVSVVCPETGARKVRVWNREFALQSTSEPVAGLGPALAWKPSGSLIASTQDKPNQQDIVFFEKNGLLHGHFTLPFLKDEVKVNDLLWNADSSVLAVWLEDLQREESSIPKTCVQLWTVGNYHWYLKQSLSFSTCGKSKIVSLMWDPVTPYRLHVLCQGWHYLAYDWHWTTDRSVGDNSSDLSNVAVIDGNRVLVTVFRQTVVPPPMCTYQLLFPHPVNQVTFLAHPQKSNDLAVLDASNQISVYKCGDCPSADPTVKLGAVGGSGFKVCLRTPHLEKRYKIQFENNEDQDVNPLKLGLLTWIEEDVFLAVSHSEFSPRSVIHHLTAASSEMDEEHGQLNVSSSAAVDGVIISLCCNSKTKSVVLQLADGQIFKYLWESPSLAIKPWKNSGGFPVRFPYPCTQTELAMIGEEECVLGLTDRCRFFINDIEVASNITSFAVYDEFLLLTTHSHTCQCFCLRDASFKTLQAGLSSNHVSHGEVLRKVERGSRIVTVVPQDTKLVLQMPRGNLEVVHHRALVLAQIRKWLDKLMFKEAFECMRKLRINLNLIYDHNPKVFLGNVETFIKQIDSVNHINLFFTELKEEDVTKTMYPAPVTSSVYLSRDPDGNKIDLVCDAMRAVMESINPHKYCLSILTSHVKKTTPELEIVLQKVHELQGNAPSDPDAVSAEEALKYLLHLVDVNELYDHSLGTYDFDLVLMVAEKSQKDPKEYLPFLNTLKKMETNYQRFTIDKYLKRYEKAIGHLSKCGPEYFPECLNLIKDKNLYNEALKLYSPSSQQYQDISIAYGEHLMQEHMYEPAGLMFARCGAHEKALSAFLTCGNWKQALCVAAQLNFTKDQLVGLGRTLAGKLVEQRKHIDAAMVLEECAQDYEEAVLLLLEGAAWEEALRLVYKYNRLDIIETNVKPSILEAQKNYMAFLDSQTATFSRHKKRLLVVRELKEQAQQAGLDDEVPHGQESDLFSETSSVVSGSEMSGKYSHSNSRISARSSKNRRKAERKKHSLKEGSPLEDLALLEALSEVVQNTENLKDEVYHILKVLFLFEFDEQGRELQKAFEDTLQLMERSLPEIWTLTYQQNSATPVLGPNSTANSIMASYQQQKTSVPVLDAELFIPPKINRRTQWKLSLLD
T1 sequence (Q6IA86 1-826 partner): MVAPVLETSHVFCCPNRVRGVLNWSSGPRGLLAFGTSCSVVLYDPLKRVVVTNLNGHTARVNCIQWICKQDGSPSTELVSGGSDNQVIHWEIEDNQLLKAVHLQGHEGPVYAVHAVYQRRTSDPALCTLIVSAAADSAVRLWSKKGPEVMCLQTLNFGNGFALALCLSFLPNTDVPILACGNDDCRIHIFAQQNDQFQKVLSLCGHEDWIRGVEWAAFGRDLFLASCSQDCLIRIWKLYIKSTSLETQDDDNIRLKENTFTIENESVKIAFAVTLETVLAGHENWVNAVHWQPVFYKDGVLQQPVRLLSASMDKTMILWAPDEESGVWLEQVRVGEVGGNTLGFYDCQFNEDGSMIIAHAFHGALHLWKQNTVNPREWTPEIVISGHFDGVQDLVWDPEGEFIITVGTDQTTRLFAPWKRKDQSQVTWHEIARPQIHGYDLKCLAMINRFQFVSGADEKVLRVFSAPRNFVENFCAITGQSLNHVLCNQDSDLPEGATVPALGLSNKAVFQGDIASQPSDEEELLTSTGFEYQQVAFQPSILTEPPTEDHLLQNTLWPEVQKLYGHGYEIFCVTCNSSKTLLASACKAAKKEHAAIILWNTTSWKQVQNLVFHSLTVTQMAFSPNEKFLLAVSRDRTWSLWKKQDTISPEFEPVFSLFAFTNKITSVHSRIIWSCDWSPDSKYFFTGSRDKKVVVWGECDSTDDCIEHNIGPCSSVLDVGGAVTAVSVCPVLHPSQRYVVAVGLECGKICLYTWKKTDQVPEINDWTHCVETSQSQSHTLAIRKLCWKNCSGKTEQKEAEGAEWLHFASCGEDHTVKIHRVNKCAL

[1] = target: ELP1;ELP2;ELP3 Y529A/Y530A (Homo sapiens;Homo sapiens;Homo sapiens, UniProt O95163;Q6IA86;Q9H9T3 1-1332;1-826;1-547, ||Y529A;Y530A); test: MST; MST: 20 mM HEPES pH 7.5, 100 mM NaCl, 5 mM DTT, 0.05% Tween 20; incubated at 4 C 30 min, measured at 25 C; Cy5-tRNA 14 or 30 nM. Cryo-EM: 20 mM HEPES pH 7.5, 100 mM NaCl, 2 mM MgCl2, 2 mM DTT; conditions: protein: recombinant;recombinant;recombinant; tags: ;;C-terminal Twin-Strep-Tag; chain copies: 2;2;2; label: internal Cy5 (5% Cy5-CTP) for MST; tRNA fold
ELP1;ELP2;ELP3 R242K = ELP1;ELP2;ELP3 R242K (Homo sapiens;Homo sapiens;Homo sapiens, UniProt O95163;Q6IA86;Q9H9T3 1-1332;1-826;1-547, ||R242K); test: as above; conditions: protein: recombinant;recombinant;recombinant; tags: ;;C-terminal Twin-Strep-Tag; chain copies: 2;2;2; label: internal Cy5 (5% Cy5-CTP) for MST; tRNA fold
ELP1;ELP2;ELP3 R402T = ELP1;ELP2;ELP3 R402T (Homo sapiens;Homo sapiens;Homo sapiens, UniProt O95163;Q6IA86;Q9H9T3 1-1332;1-826;1-547, ||R402T); test: as above; conditions: protein: recombinant;recombinant;recombinant; tags: ;;C-terminal Twin-Strep-Tag; chain copies: 2;2;2; label: internal Cy5 (5% Cy5-CTP) for MST; tRNA fold
ELP1;ELP2;ELP3 Y363A = ELP1;ELP2;ELP3 Y363A (Homo sapiens;Homo sapiens;Homo sapiens, UniProt O95163;Q6IA86;Q9H9T3 1-1332;1-826;1-547, ||Y363A); test: as above; conditions: protein: recombinant;recombinant;recombinant; tags: ;;C-terminal Twin-Strep-Tag; chain copies: 2;2;2; label: internal Cy5 (5% Cy5-CTP) for MST; tRNA fold
ELP1;ELP2;ELP3 wild type = ELP1;ELP2;ELP3 wild type (Homo sapiens;Homo sapiens;Homo sapiens, UniProt O95163;Q6IA86;Q9H9T3 1-1332;1-826;1-547, ||); test: as above; conditions: protein: recombinant;recombinant;recombinant; tags: ;;C-terminal Twin-Strep-Tag; chain copies: 2;2;2; label: internal Cy5 (5% Cy5-CTP) for MST; tRNA fold
ELP1;ELP2;ELP3 E474A = ELP1;ELP2;ELP3 E474A (Homo sapiens;Homo sapiens;Homo sapiens, UniProt O95163;Q6IA86;Q9H9T3 1-1332;1-826;1-547, ||E474A); test: as above; conditions: protein: recombinant;recombinant;recombinant; tags: ;;C-terminal Twin-Strep-Tag; chain copies: 2;2;2; label: internal Cy5 (5% Cy5-CTP) for MST; tRNA fold
ELP1;ELP2;ELP3 H476A = ELP1;ELP2;ELP3 H476A (Homo sapiens;Homo sapiens;Homo sapiens, UniProt O95163;Q6IA86;Q9H9T3 1-1332;1-826;1-547, ||H476A); test: as above; conditions: protein: recombinant;recombinant;recombinant; tags: ;;C-terminal Twin-Strep-Tag; chain copies: 2;2;2; label: internal Cy5 (5% Cy5-CTP) for MST; tRNA fold
ELP1;ELP2;ELP3 K280A = ELP1;ELP2;ELP3 K280A (Homo sapiens;Homo sapiens;Homo sapiens, UniProt O95163;Q6IA86;Q9H9T3 1-1332;1-826;1-547, ||K280A); test: as above; conditions: protein: recombinant;recombinant;recombinant; tags: ;;C-terminal Twin-Strep-Tag; chain copies: 2;2;2; label: internal Cy5 (5% Cy5-CTP) for MST; tRNA fold
ELP1;ELP2;ELP3 K164A = ELP1;ELP2;ELP3 K164A (Homo sapiens;Homo sapiens;Homo sapiens, UniProt O95163;Q6IA86;Q9H9T3 1-1332;1-826;1-547, ||K164A); test: as above; conditions: protein: recombinant;recombinant;recombinant; tags: ;;C-terminal Twin-Strep-Tag; chain copies: 2;2;2; label: internal Cy5 (5% Cy5-CTP) for MST; tRNA fold

Sequence of ELP1;ELP2;ELP3 Y529A/Y530A (Q9H9T3 whole entry Y529A/Y530A, chain 3 of 3, one chain of several): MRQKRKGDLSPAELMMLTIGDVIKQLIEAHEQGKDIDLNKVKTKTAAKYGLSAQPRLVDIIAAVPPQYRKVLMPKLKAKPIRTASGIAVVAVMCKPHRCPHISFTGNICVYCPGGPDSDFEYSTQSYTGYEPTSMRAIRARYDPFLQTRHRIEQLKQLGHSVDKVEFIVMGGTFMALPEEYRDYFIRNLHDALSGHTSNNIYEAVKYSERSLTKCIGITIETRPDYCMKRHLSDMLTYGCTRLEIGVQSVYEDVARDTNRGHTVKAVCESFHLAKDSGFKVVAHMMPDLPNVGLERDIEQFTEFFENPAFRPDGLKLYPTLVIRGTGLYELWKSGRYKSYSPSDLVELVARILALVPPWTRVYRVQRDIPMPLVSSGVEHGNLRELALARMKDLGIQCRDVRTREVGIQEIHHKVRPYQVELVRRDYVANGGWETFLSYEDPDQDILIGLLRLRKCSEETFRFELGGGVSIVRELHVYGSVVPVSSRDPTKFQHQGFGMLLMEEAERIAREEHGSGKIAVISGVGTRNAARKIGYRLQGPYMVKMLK

`CC(=O)SCCNC(=O)CCNC(=O)[C@H](O)C(C)(C)COP(=O)(O)OP(=O)(O)OC[C@H]1O[C@@H](n2cnc3c(N)ncnc32)[C@H](O)[C@@H]1OP(=O)(O)O` [acetyl-CoA] was tested. Which “cryo-EM structure (2.87 Å)” value (human ELP123) did it give?
The value was “well-resolved ligand density that unambiguously fits a complete acetyl-CoA molecule”.

B1: tRNAGlnUUG (structured_RNA)
RNA: GGCCCCAUGGUGUAAUGGUUAGCACUCUGGACUUUGAAUCCAGCGAUCCGAGUUCAAAUCUCGGUGGGACCUCCA
What does the source list for B1?
Kd [1]: 94.7 ± 5.2 nM; binding result (ELP1;ELP2;ELP3 R242K): binds; binding result (ELP1;ELP2;ELP3 R402T): binds; binding result (ELP1;ELP2;ELP3 Y363A): binds; Kd (ELP1;ELP2;ELP3 wild type): 37.6 ± 5.3 nM; binding result (ELP1;ELP2;ELP3 E474A): binds; binding result (ELP1;ELP2;ELP3 H476A): binds; binding result (ELP1;ELP2;ELP3 K280A): binds; binding result (ELP1;ELP2;ELP3 K164A): binds
